Values of other authors as cited in article PMC4440831 (Chembiochem : a European journal of chemical biology, 2015).

Target: CXCR4 receptor (Homo sapiens, UniProt P61073)
Settings: earlier work of the same group

Chain of CXCR4 receptor (P61073 whole entry): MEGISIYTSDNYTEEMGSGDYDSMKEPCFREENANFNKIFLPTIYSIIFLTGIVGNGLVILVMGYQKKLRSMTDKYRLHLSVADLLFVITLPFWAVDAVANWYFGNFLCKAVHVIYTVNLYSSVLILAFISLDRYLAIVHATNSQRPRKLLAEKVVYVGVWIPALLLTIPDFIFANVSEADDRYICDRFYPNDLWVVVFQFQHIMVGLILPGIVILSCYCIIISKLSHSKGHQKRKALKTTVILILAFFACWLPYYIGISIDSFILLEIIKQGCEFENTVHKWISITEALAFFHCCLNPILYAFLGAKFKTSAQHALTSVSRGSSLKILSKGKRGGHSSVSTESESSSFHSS

MCoTI-I: empty scaffold cyclotide (SGSDGGVCPKILQRCRRDSDCPGACICRGNGYCG; not fully specified; Trypsin inhibitor 1; UniProt P82408 1-34, looked up)
CXCR4 inhibitory activity, result in words: no inhibitory activity
